These results are taken from patent publication US20200048350A1 (INHIBRX BIOSCIENCES, published 2020).

Sequences and labels used below:
T1: B7H3 (UniProt Q5ZPR3 29-534, limits assumed)
T1 construct: whole, on cells; also called CD276
T1 sequence (looked up): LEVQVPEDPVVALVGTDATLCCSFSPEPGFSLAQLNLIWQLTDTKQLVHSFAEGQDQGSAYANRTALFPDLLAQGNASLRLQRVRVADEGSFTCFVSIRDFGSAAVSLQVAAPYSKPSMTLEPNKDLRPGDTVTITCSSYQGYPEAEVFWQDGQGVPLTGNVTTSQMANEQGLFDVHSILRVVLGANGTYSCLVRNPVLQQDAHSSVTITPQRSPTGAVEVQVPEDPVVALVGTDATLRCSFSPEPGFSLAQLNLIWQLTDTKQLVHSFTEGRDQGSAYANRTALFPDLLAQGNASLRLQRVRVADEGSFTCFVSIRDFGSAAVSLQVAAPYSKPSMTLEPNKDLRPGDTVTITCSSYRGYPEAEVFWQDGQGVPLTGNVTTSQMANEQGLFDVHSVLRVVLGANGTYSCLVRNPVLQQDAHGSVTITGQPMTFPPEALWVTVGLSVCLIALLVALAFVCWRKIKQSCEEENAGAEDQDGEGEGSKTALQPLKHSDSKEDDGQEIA

T2: DLL3 (human, UniProt Q9NYJ7 27-618)
T2 construct: also called Delta-like 3; Human DLL3
T2 sequence: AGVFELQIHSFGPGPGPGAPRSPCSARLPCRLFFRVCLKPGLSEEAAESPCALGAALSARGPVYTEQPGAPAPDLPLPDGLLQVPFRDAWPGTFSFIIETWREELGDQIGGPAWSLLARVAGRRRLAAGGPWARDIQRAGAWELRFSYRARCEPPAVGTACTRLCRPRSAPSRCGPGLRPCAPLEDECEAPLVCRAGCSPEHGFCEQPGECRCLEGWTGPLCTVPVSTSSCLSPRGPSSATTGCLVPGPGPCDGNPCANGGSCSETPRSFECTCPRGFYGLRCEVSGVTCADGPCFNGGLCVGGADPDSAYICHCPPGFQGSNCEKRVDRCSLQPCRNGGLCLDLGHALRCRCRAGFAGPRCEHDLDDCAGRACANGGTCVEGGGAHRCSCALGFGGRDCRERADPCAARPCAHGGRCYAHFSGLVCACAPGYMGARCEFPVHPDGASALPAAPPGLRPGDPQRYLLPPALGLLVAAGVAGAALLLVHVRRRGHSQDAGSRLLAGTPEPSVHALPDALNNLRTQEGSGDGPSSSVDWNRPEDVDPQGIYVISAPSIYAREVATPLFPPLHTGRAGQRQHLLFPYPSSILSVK

B1: cx5187 (other)
chain 1: EVQLVESGGGEVQPGGSLRLSCAASGFSFSSNVMMWVRQAPGKGLEWVSTIYSSGTGTFYAESVKGRFTISRDNAKNTLYLQMSSLRPEDTAVYYCATSGPVRGWGPRSQGTLVTVKPPGGGGDKTHTCPPCPAPGGPSVFLFPPKPKDTLMISRTPEVTCVVVDVSHEDPEVKFNWYVDGVEVHNAKTKPREEQYNSTYRVVSVLTVLHQDWLNGKEYKCKVSNKALPAPIEKTISKAKGQPREPQVYTLPPCRDELTKNQVSLWCLVKGFYPSDIAVEWESNGQPENNYKTTPPVLDSDGSFFLYSKLTVDKSRWQQGNVFSCSVMHEALHNHYTQKSLSLSPTGGGGGSGGGGGSGGGGGSEVQLVESGGGLVQPGGSLRLSCAASGFTFNTYAMNWVRQAPGKCLEWVARIRSKYNNYATYYADSVKGRFTISRDDAKNTLYLQMSSLRAEDTAVYYCVRHGNFGNSYVSWFAYWGQGTLVTVKPGGGGEVQLVESGGGEVQPGGSLRLSCAASGFTFSSYHMSWFRQAPGKQREPVATSHHGGTTNYAGSVKGRFTISRDNAKNTVYLQMNTLRAEDTAVYYCKADHGYQGRGYWGQGTLVTVKP
chain 2: DKTHTCPPCPAPGGPSVFLFPPKPKDTLMISRTPEVTCVVVDVSHEDPEVKFNWYVDGVEVHNAKTKPREEQYNSTYRVVSVLTVLHQDWLNGKEYKCKVSNKALPAPIEKTISKAKGQPREPQVCTLPPSRDELTKNQVSLSCAVKGFYPSDIAVEWESNGQPENNYKTTPPVLDSDGSFFLVSKLTVDKSRWQQGNVFSCSVMHEALHNRYTQKSLSLSPTGGGGGSGGGGGSGGGGGSQAVVTQEPSLTVSPGGTVTLTCGSSTGAVTTSNYANWVQQKPGQAFRGLIGGTNKRAPGVPARFSGSLLGGKAALTISGAQPEDEADYYCALWYSNHWVFGCGTKLEIKGGGGEVQLLESGGGEVQPGGSLRLSCAASGFSFSINAMGWYRQAPGKRREFVAAIESGRNTVYAESVKGRFTISRDNAKNTVYLQMSSLRAEDTAVYYCGLLKGNRVVSPSVAYWGQGTLVTVKP
notes: hole 91, 93 or 296, differing at the C-terminal end; the first is written; also called bivalent, bi-epitopic B7H3-targeted constrained CD3 engaging construct; Knob-VH
B2: cx5873 (other)
chain 1: DKTHTCPPCPAPGGPSVFLFPPKPKDTLMISRTPEVTCVVVDVSHEDPEVKFNWYVDGVEVHNAKTKPREEQYNSTYRVVSVLTVLHQDWLNGKEYKCKVSNKALPAPIEKTISKAKGQPREPQVYTLPPCRDELTKNQVSLWCLVKGFYPSDIAVEWESNGQPENNYKTTPPVLDSDGSFFLYSKLTVDKSRWQQGNVFSCSVMHEALHNHYTQKSLSLSPTGGGGGSGGGGGSGGGGGSEVQLVESGGGLVQPGGSLRLSCAASGFTFNTYAMNWVRQAPGKCLEWVARIRSKYNNYATYYADSVKGRFTISRDDAKNTLYLQMSSLRAEDTAVYYCVRHGNFGNSYVSWFAYWGQGTLVTVKPGGGGEVQLVESGGGEVQPGGSLRLSCAASGFTFSSYHMSWFRQAPGKQREPVATSHHGGTTNYAGSVKGRFTISRDNAKNTVYLQMNTLRAEDTAVYYCKADHGYQGRGYWGQGTLVTVKP
chain 2: B1 chain 2
notes: Fc alternatives printed; first written; Short peptide linkers only 'e.g.'; also called monovalent B7H3-targeting constrained CD3 engaging construct (C-terminal sdAb)
B3: cx5965 (other)
chain 1: EVQLVESGGGEVQPGGSLRLSCAASGFSFSSNVMMWVRQAPGKGLEWVSTIYSSGTGTFYAESVKGRFTISRDNAKNTLYLQMSSLRPEDTAVYYCATSGPVRGWGPRSQGTLVTVKPPGGGGDKTHTCPPCPAPGGPSVFLFPPKPKDTLMISRTPEVTCVVVDVSHEDPEVKFNWYVDGVEVHNAKTKPREEQYNSTYRVVSVLTVLHQDWLNGKEYKCKVSNKALPAPIEKTISKAKGQPREPQVYTLPPCRDELTKNQVSLWCLVKGFYPSDIAVEWESNGQPENNYKTTPPVLDSDGSFFLYSKLTVDKSRWQQGNVFSCSVMHEALHNHYTQKSLSLSPTGGGGGSGGGGGSGGGGGSEVQLVESGGGLVQPGGSLRLSCAASGFTFNTYAMNWVRQAPGKCLEWVARIRSKYNNYATYYADSVKGRFTISRDDAKNTLYLQMSSLRAEDTAVYYCVRHGNFGNSYVSWFAYWGQGTLVTVKP
chain 2: B1 chain 2
notes: Fc alternatives printed; first written; Short peptide linkers only 'e.g.'; also called monovalent B7H3-targeting constrained CD3 engaging construct (N-terminal sdAb)
B4: cx5823 (other)
chain 1: B1 chain 1 with T346G, P540L
chain 2: B1 chain 2 with T223G
notes: Short peptide linkers only 'e.g.'; also called bivalent B7H3-targeting constrained CD3 engaging construct
B5: cx5352 (other)
chain 1: EVQLVESGGGEVQPGGSLRLSCAASGSIFSINAMGWYRQAPGKQRELVAGFTGDTNTIYAESVKGRFTISRDNAKNTVYLQMSSLRAEDTAVYYCAADVQLFSRDYEFYWGQGTLVTVKPPGGGGDKTHTCPPCPAPGGPSVFLFPPKPKDTLMISRTPEVTCVVVDVSHEDPEVKFNWYVDGVEVHNAKTKPREEQYNSTYRVVSVLTVLHQDWLNGKEYKCKVSNKALPAPIEKTISKAKGQPREPQVYTLPPCRDELTKNQVSLWCLVKGFYPSDIAVEWESNGQPENNYKTTPPVLDSDGSFFLYSKLTVDKSRWQQGNVFSCSVMHEALHNHYTQKSLSLSPTGGGGGSGGGGGSGGGGGSEVQLVESGGGLVQPGGSLRLSCAASGFTFNTYAMNWVRQAPGKCLEWVARIRSKYNNYATYYADSVKGRFTISRDDAKNTLYLQMSSLRAEDTAVYYCVRHGNFGNSYVSWFAYWGQGTLVTVKPGGGGEVQLVESGGGEVQPGGSLRLSCGPSEIITSDKSMGWVRQAPGKQRNLVAGISNVGSTNYAQSVKGRFTISRDNAKNTVYLQMSSLRAEDTAVYYCYARDFENEYWGQGTLVTVKP
chain 2: B1 chain 2
notes: Fc alternatives printed; first written; Short peptide linkers only 'e.g.'
B6: cx5801 (other)
chain 1: DKTHTCPPCPAPGGPSVFLFPPKPKDTLMISRTPEVTCVVVDVSHEDPEVKFNWYVDGVEVHNAKTKPREEQYNSTYRVVSVLTVLHQDWLNGKEYKCKVSNKALPAPIEKTISKAKGQPREPQVYTLPPCRDELTKNQVSLWCLVKGFYPSDIAVEWESNGQPENNYKTTPPVLDSDGSFFLYSKLTVDKSRWQQGNVFSCSVMHEALHNHYTQKSLSLSPTGGGGGSGGGGGSGGGGGSEVQLVESGGGLVQPGGSLRLSCAASGFTFNTYAMNWVRQAPGKCLEWVARIRSKYNNYATYYADSVKGRFTISRDDAKNTLYLQMSSLRAEDTAVYYCVRHGNFGNSYVSWFAYWGQGTLVTVKPGGGGEVQLVESGGGEVQPGGSLRLSCGPSEIITSDKSMGWVRQAPGKQRNLVAGISNVGSTNYAQSVKGRFTISRDNAKNTVYLQMSSLRAEDTAVYYCYARDFENEYWGQGTLVTVKP
chain 2: B1 chain 2
notes: Fc alternatives printed; first written; Short peptide linkers only 'e.g.'; also called monovalent DLL3-targeted constrained CD3 engaging construct (C-terminal sdAb)
B7: cx5800 (other)
chain 1: EVQLVESGGGEVQPGGSLRLSCAASGSIFSINAMGWYRQAPGKQRELVAGFTGDTNTIYAESVKGRFTISRDNAKNTVYLQMSSLRAEDTAVYYCAADVQLFSRDYEFYWGQGTLVTVKPPGGGGDKTHTCPPCPAPGGPSVFLFPPKPKDTLMISRTPEVTCVVVDVSHEDPEVKFNWYVDGVEVHNAKTKPREEQYNSTYRVVSVLTVLHQDWLNGKEYKCKVSNKALPAPIEKTISKAKGQPREPQVYTLPPCRDELTKNQVSLWCLVKGFYPSDIAVEWESNGQPENNYKTTPPVLDSDGSFFLYSKLTVDKSRWQQGNVFSCSVMHEALHNHYTQKSLSLSPTGGGGGSGGGGGSGGGGGSEVQLVESGGGLVQPGGSLRLSCAASGFTFNTYAMNWVRQAPGKCLEWVARIRSKYNNYATYYADSVKGRFTISRDDAKNTLYLQMSSLRAEDTAVYYCVRHGNFGNSYVSWFAYWGQGTLVTVKP
chain 2: B1 chain 2
notes: Fc alternatives printed; first written; Short peptide linkers only 'e.g.'; also called monovalent DLL3-targeted constrained CD3 engaging construct (N-terminal sdAb)

Changes are numbered by the printed parent chain.

In one experiment the target is T1, B7H3. In words: cell binding assay on A375 cells.
B1: the binding result is on record as “binds”.

On to B2, for which the binding result is “binds”.

As for B3, the binding result was “binds”.

The target in a further experiment is T3, CD3 (human, UniProt P07766 23-207).
T3 construct: whole, on cells; CD3 is a multi-chain complex; also called CD3ε; CD3 on the surface of primary T cells
T3 sequence (P07766 23-207): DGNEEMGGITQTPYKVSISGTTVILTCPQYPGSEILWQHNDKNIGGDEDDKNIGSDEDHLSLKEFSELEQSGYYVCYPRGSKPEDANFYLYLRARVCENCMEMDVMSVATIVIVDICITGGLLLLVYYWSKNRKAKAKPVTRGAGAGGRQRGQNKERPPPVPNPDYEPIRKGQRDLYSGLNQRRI
In words: cell binding assay on isolated primary T cells.
For the molecule B1, the binding result is reported as “no binding”.

For the molecule B2, the binding result is reported as “no binding”.

Turning to B3, the binding result was “no binding”.

For the molecule B4, the binding result is “no binding”.

For another experiment, the target named is T2, DLL3. In words: flow cytometry on SHP-77 cells, anti-human IgG Fc secondary. On the procedure:
(§1) Binding of exemplary multispecific constructs containing an antigen-binding domain directed against DLL3 were assessed for binding to DLL3 positive SHP-77 tumor cells or primary T-cells. […] These binding assays were conducted by flow cytometry, wherein bound constructs were detected using a fluorophore-conjugated anti-human IgG Fc secondary antibody.
(In flow cytometry, cells or beads pass a laser one at a time.)
For B5, the binding result is recorded as “binds”.

Take B6: the binding result is on record as “binds”.

Regarding B7, the binding result is on record as “binds”.

The target in another experiment is T3, CD3. In words: flow cytometry on primary T cells, anti-human IgG Fc secondary. The protocol:
as §1
Consider B5, for which the binding result is reported as “no binding”.

B6: the binding result was “no binding”.

Turning to B7, the binding result is reported as “no binding”.
